Measurements from the supplement of paper PMC10065799, “High-throughput profiling of sequence recognition by tyrosine kinases and SH2 domains using bacterial peptide display” (eLife, 2023).

Key:
[1] = biological target: c-Src SH2; assay: SH2 binding enrichment of the phosphorylated peptide, bacterial display (enrichment ratio); higher = better substrate or ligand; peptides without Tyr show the background
[2] = biological target: SHP2-C SH2; assay: as above
[3] = biological target: Grb2 SH2 (UniProt P62993); assay: as above
[4] = biological target: EPHB2 (UniProt P29323); assay: phosphorylation enrichment, bacterial display (enrichment ratio); higher = better substrate or ligand; peptides without Tyr show the background
Chain of EPHB2 (P29323 whole entry, looked up): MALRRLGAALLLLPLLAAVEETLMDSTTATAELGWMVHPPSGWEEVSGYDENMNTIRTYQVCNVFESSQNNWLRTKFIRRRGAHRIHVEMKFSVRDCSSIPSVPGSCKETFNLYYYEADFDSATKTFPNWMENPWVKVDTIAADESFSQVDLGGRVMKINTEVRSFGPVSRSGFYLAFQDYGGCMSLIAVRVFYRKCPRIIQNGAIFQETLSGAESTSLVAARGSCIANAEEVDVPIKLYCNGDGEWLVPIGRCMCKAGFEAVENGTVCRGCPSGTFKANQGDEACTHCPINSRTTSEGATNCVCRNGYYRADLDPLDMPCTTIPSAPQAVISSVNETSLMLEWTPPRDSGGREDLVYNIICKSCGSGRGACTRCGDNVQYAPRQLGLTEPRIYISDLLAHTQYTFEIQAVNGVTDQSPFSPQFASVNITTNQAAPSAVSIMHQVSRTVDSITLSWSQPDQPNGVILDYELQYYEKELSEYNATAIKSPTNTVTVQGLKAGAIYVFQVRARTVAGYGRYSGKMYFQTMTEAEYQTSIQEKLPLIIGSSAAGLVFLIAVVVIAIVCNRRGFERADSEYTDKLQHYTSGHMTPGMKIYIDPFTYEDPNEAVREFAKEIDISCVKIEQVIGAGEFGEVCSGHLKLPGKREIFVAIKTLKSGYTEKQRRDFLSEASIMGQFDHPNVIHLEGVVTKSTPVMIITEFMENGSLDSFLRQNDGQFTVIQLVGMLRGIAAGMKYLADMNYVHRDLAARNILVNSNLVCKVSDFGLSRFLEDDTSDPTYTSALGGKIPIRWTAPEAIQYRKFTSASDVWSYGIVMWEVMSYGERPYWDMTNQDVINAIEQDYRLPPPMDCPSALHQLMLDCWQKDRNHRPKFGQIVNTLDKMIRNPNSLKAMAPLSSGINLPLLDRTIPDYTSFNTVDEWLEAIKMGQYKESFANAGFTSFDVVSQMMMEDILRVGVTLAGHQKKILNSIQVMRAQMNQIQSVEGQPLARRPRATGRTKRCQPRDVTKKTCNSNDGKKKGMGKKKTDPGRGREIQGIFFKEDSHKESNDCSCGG

[5] = system: Fer (mouse); assay: as above
[6] = biological target: MERTK (UniProt Q12866); assay: as above
Chain of MERTK (Q12866 whole entry, looked up): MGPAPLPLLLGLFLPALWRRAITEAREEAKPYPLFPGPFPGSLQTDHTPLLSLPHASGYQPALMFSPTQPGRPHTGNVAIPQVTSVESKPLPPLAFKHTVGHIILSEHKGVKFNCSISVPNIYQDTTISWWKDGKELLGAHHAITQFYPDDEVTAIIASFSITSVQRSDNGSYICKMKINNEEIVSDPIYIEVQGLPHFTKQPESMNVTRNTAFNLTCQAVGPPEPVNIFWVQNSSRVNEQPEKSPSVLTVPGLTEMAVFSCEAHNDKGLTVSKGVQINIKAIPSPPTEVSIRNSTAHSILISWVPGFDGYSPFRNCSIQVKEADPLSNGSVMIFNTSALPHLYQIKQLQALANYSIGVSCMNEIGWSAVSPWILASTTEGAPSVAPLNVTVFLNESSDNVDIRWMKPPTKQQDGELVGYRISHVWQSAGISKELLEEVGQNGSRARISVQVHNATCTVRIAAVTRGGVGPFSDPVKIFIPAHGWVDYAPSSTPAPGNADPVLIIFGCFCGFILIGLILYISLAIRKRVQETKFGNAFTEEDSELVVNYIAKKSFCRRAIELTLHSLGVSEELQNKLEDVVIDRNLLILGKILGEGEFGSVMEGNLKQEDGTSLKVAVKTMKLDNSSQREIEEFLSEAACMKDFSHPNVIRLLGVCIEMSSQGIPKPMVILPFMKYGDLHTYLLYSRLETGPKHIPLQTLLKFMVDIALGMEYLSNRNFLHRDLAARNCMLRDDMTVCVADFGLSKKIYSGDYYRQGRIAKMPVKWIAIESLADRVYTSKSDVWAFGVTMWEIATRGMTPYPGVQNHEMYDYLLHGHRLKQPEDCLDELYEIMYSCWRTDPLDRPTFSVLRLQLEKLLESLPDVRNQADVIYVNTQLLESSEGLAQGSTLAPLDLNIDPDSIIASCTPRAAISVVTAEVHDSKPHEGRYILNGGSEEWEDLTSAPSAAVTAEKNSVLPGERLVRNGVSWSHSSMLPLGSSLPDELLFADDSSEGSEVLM

[7] = system: c-Abl (mouse); assay: as above
[8] = biological target: FGFR3 (UniProt P22607); assay: as above
[9] = system: AncSZ; assay: as above
[10] = system: c-Src; assay: as above
[11] = biological target: Jak2 (UniProt O60674); assay: as above
[12] = biological target: Fyn (UniProt P06241); assay: as above
Chain of Fyn (P06241 whole entry, looked up): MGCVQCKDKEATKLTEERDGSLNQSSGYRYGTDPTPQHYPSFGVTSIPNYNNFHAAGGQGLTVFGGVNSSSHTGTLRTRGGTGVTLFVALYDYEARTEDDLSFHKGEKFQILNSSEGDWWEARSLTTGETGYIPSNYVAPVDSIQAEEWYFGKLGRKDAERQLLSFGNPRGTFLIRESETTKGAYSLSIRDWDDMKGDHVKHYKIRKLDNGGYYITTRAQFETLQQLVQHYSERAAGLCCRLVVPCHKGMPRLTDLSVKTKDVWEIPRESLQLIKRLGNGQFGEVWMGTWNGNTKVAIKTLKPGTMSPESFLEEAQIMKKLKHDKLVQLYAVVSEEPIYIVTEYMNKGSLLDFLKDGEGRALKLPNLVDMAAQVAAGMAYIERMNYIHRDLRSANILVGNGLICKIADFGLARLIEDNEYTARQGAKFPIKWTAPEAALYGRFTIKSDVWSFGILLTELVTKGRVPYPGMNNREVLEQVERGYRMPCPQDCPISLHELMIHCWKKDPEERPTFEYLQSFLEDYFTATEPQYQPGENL

[13] = biological target: EPHB1 (UniProt P54762); assay: as above
[14] = biological target: Fes (UniProt P07332); assay: as above
Chain of Fes (P07332 whole entry, looked up): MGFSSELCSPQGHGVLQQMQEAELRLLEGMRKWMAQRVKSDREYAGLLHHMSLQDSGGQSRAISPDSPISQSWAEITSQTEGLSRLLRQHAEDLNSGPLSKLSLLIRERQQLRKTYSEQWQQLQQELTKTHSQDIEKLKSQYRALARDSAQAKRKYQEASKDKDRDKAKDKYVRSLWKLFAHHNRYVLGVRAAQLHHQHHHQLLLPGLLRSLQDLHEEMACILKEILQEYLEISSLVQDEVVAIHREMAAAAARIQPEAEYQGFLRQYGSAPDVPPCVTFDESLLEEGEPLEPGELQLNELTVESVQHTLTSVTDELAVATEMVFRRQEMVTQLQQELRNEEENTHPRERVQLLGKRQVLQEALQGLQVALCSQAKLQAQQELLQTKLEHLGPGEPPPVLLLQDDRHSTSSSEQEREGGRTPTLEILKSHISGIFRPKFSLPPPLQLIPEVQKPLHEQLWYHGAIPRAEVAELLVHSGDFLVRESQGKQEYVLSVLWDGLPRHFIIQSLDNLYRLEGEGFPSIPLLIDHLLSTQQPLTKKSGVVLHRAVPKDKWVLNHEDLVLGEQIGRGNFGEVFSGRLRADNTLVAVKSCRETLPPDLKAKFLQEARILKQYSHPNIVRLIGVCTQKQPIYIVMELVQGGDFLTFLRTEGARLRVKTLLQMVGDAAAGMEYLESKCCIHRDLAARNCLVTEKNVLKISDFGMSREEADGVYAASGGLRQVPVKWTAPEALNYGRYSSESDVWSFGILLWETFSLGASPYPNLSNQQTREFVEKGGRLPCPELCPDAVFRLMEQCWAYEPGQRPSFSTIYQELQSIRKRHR

[15] = biological target: FGFR1 (UniProt P11362); assay: as above
Chain of FGFR1 (P11362 whole entry, looked up): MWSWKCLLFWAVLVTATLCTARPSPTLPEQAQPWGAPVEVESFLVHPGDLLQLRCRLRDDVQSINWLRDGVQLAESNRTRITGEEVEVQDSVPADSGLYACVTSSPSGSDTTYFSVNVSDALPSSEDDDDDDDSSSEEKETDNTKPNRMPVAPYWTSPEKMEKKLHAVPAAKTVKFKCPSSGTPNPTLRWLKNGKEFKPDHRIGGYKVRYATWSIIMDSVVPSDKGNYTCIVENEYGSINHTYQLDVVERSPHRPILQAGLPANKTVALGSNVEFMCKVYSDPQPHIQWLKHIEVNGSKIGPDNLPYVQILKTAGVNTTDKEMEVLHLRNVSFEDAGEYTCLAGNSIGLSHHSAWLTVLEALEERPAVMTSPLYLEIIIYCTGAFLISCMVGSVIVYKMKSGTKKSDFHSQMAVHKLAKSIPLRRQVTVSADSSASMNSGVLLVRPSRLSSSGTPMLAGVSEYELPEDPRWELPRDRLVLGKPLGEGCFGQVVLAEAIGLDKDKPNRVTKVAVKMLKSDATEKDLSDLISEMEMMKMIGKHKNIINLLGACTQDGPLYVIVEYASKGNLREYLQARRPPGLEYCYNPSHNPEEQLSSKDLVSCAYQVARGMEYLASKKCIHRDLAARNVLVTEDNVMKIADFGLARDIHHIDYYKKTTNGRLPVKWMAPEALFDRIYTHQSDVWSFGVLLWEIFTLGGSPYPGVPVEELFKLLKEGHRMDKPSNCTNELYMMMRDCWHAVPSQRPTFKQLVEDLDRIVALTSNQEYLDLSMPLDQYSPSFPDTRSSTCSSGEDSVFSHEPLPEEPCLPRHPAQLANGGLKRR

[16] = biological target: Hck (UniProt P08631); assay: as above
Chain of Hck (P08631 whole entry, looked up, the tested form may be a part): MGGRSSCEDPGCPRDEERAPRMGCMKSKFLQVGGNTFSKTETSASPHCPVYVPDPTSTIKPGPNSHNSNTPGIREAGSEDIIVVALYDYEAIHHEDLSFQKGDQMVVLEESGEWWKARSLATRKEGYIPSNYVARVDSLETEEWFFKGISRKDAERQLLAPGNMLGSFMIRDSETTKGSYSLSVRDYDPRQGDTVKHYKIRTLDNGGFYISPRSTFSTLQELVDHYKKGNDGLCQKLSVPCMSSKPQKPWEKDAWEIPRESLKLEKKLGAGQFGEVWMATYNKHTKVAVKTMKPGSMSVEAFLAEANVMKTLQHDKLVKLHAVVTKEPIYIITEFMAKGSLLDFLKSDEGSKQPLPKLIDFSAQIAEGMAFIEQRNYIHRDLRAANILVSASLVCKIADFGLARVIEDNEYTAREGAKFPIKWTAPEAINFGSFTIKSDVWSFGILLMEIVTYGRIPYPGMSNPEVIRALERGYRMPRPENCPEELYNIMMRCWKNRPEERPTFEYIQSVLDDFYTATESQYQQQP
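For SH2 binding enrichment of the phosphorylated peptide, bacterial display in this document: peptide library displayed on the E. coli surface as eCPX fusions, selected cells deep-sequenced, score is each peptide's frequency after selection divided by its frequency in the input.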
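For phosphorylation enrichment, bacterial display in this document: 11-residue human phosphosite peptides and single-mutation variants displayed on the E. coli surface, counted by deep sequencing, each peptide's frequency after selection divided by its frequency in the unselected input library; frequency after pTyr selection over input frequency; kinase dosed for 20-30% of maximal phosphorylation in three min.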

SH2 binding enrichment [1]	SH2 binding enrichment [2]	SH2 binding enrichment [3]	Sequence	phosphorylation enrichment [4]	phosphorylation enrichment [5]	phosphorylation enrichment [6]	phosphorylation enrichment [7]	phosphorylation enrichment [8]	phosphorylation enrichment [9]	phosphorylation enrichment [10]	phosphorylation enrichment [11]	phosphorylation enrichment [12]	phosphorylation enrichment [13]	phosphorylation enrichment [14]	phosphorylation enrichment [15]	phosphorylation enrichment [16]
0.427	0.618	0.685	NGQAVYAACQT [XDH_Y1092]	2.2	2.4	1.64	3.5	0.371	0.545	3.51	0.378	4.76	2.24	0.706	0.506	4.26
2.28	0.556	0.887	KAPPTYDTVLQ [CYP3A4_Y347]	7.86	2.09	1.89	0.663	0.483	0.686	1.44	0.576	2.46	6.72	0.735	0.36	2.98
2.73	32.9	0.83	PQAVTYAEVKH [LILRB4_Y360_K362E]	1.16	0.804	0.617	0.763	0.625	0.872	4.89	0.867	5.58	1.94	1.03	0.692	4.17
0.537	0.583	0.897	GSERDYTFEEL [EIF2S2_Y174_YF]	0.598	0.499	0.479	0.738	0.749	1.14	0.566	1.07	0.453	0.571	1.27	0.602	0.505
0.587	0.807	0.928	IRKTEYPFSSE [ATP2C1_Y452_A450T]	0.397	0.339	0.348	0.549	0.449	0.582	0.428	0.599	0.401	0.426	0.837	0.466	0.405

Second part, the sequence before the results:

Sequence	SH2 binding enrichment [1]	SH2 binding enrichment [2]	SH2 binding enrichment [3]	phosphorylation enrichment [4]	phosphorylation enrichment [5]	phosphorylation enrichment [6]	phosphorylation enrichment [7]	phosphorylation enrichment [8]	phosphorylation enrichment [9]	phosphorylation enrichment [10]	phosphorylation enrichment [11]	phosphorylation enrichment [12]	phosphorylation enrichment [13]	phosphorylation enrichment [14]	phosphorylation enrichment [15]	phosphorylation enrichment [16]
PLDGGYFTLQI [TP53_Y327_E326G]	0.518	0.663	0.71	0.776	0.766	0.5	1.09	1.59	1.79	1.37	5.04	0.726	1.2	1.75	1.67	0.679
LWEGSYGKVKE [STK11_Y60_G56W]	0.507	1.21	0.645	0.491	0.647	0.509	0.69	0.77	0.872	0.721	1.08	0.623	0.476	2.28	0.587	0.678
PLDGEYFTPQI [TP53_Y327_L330P]	0.45	0.725	0.816	1.91	0.482	0.474	12.9	2.19	6.68	0.434	0.978	0.89	1.53	1.34	3.09	0.733
PSDLLYILDIQ [ITGA2B_Y845]	0.571	0.492	1.19	1.06	1.32	2.82	1.17	1.91	2.77	4.22	2.24	2.82	1.07	2.33	1.35	1.57
YSGDYYRIQGR [DDR2_Y741]	0.552	0.673	1.01	2.72	0.429	5.04	1.76	8.65	1.82	2.31	8.46	1.04	5.47	0.846	12.1	1.68
